{"source": "the supplement of paper PMC12042874", "note": "± gives the uncertainty stated by the source.", "data": [{"test": "amyloid nucleation score (Sup35N fusion, yeast selection) (log enrichment); library NNK1; higher = more nucleation; inactive = no reads after selection", "how_it_was_run": "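Yeast lacking psi expressed peptides of 20 random codons fused to Sup35N, received 100 μM copper sulfate for 24 hours, and were then grown for 7 days at 30°C on medium lacking adenine and uracil. Illumina sequencing of input and output plasmid inserts provided the reads. Nucleation scores are DiMSum log enrichments of output over input, centred on the mode of non-aggregating sequences. Any sequence with under 100 input reads was excluded.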", "values": [{"substance": "SCYTVYQLGLDVGRGVDLEF", "amyloid nucleation score": "-0.013 ± 0.58"}, {"substance": "SDAMSTHQRVNRF", "amyloid nucleation score": "0.369 ± 0.55"}, {"substance": "SDEGN", "amyloid nucleation score": "1.55 ± 0.53"}, {"substance": "SDELWLLQFPVLNNKLWEK", "amyloid nucleation score": "0.726 ± 1.1"}, {"substance": "SDESKMCRMGYYLPALAIAW", "amyloid nucleation score": "-0.173 ± 0.82"}, {"substance": "SDFGI", "amyloid nucleation score": "-0.647 ± 0.64"}, {"substance": "SDKAMHCGCVLH", "amyloid nucleation score": "-0.891 ± 0.56"}, {"substance": "SDLELTTLFF", "amyloid nucleation score": "-0.57 ± 0.37"}, {"substance": "SDMDNTWLA", "amyloid nucleation score": "-0.797 ± 0.66"}, {"substance": "SDYMCTKSSIKLNTYIDVKD", "amyloid nucleation score": "-1.6 ± 2.1"}, {"substance": "SEAVCVRVQLAWDRLMGVRV", "amyloid nucleation score": "0.966 ± 0.64"}, {"substance": "SECLLYSWRVILSRLSPESE", "amyloid nucleation score": "0.257 ± 0.62"}, {"substance": "SEGCCYRKGCVTTRDSALSG", "amyloid nucleation score": "inactive"}, {"substance": "SEGIPPQFFRYTAGASNLDT", "amyloid nucleation score": "0.306 ± 0.64"}, {"substance": "SEGMYSRMAIEWLSGE", "amyloid nucleation score": "1.21 ± 0.69"}, {"substance": "SEVCPSSIKR", "amyloid nucleation score": "-0.067 ± 0.49"}, {"substance": "SEWSRKGVYNACLITG", "amyloid nucleation score": "-0.01 ± 0.48"}, {"substance": "SEYETG", "amyloid nucleation score": "0.101 ± 0.34"}, {"substance": "SFAHHAFIGFILSSWWN", "amyloid nucleation score": "-1.06 ± 2.4"}, {"substance": "SFCNFQGVRFFL", "amyloid nucleation score": "1.73 ± 0.2"}, {"substance": "SFDGLYLNSCRFSLPCLLSR", "amyloid nucleation score": "0.196 ± 0.26"}, {"substance": "SFFFKFYSDSFGNSTFQTID", "amyloid nucleation score": "-0.046 ± 0.31"}, {"substance": "SFFLFRENFEMSNIRFRYVN", "amyloid nucleation score": "0.995 ± 0.68"}, {"substance": "SFFLIIVQREKRVRTSGCL", "amyloid nucleation score": "0.954 ± 0.8"}, {"substance": "SFFWVYHRYSMPRSLCVM", "amyloid nucleation score": "inactive"}, {"substance": "SFIIVYY", "amyloid nucleation score": "1.84 ± 0.19"}, {"substance": "SFKWVVRVWRCRILWNSGVS", "amyloid nucleation score": "0.001 ± 0.78"}, {"substance": "SFKYWNIRHKYFRTSLT", "amyloid nucleation score": "-0.152 ± 0.4"}, {"substance": "SFLDMGFEAVNFGVVPSIMR", "amyloid nucleation score": "0.479 ± 0.48"}, {"substance": "SFLLGQGTL", "amyloid nucleation score": "0.724 ± 0.69"}, {"substance": "SFLWYIGFNSWRFCGRYTTL", "amyloid nucleation score": "0.174 ± 0.5"}, {"substance": "SFSHVYFYGVPYGQVPYRSV", "amyloid nucleation score": "1.5 ± 0.28"}, {"substance": "SFSSSSLYSLVCRYHSIRWA", "amyloid nucleation score": "0.589 ± 0.28"}, {"substance": "SFVSRGCSYCC", "amyloid nucleation score": "-0.489 ± 0.59"}, {"substance": "SFYILTHTNFGTFPLFDDRH", "amyloid nucleation score": "-0.897 ± 0.69"}, {"substance": "SFYVWDDSYCFVFGCTSVKC", "amyloid nucleation score": "-0.291 ± 0.47"}, {"substance": "SGAPLDAGFNIA", "amyloid nucleation score": "0.227 ± 0.49"}, {"substance": "SGAYLKASYTSPSVRVFLVL", "amyloid nucleation score": "2.75 ± 0.25"}, {"substance": "SGDRAYFSKFSVCIPRDRVQ", "amyloid nucleation score": "-0.046 ± 0.67"}, {"substance": "SGDWTYFIIMRWDLPFIICR", "amyloid nucleation score": "0.265 ± 0.22"}, {"substance": "SGFSGVRNHPRETQLCHGSA", "amyloid nucleation score": "-0.094 ± 0.33"}, {"substance": "SGGELVVLIYMNMGASGWAP", "amyloid nucleation score": "-0.756 ± 0.56"}, {"substance": "SGGSLVFVCYGRNF", "amyloid nucleation score": "-1.35 ± 1.1"}, {"substance": "SGGYLADYPLRVNLLFFNFV", "amyloid nucleation score": "0.431 ± 0.43"}, {"substance": "SGIVLTG", "amyloid nucleation score": "-1.06 ± 2.1"}, {"substance": "SGLGTNKRSTPWYHSRFEGQ", "amyloid nucleation score": "0.036 ± 0.47"}, {"substance": "SGMRRFRWLEVFSTDQRLEA", "amyloid nucleation score": "inactive"}, {"substance": "SGQMSLWSYL", "amyloid nucleation score": "0.781 ± 0.59"}, {"substance": "SGSSTVWCAYRMTGQPPGRT", "amyloid nucleation score": "1.37 ± 0.51"}, {"substance": "SGTIYWLTDQSDFILLVMRD", "amyloid nucleation score": "-1.26 ± 0.47"}, {"substance": "SGTRELALGRFHTCCNQRGK", "amyloid nucleation score": "0.442 ± 0.27"}, {"substance": "SHLFQM", "amyloid nucleation score": "-0.034 ± 0.58"}, {"substance": "SHLGVVCNRLVYERETNVST", "amyloid nucleation score": "-0.191 ± 0.29"}, {"substance": "SHLMPGCEKFLHCVSFPDA", "amyloid nucleation score": "-0.45 ± 0.56"}, {"substance": "SHLNHEGFRLIQCLIWSLHW", "amyloid nucleation score": "0.33 ± 0.54"}, {"substance": "SHMDHGRQRWCSN", "amyloid nucleation score": "0.83 ± 0.88"}, {"substance": "SHMMHSMAEVSFARYWDKQS", "amyloid nucleation score": "-2.46 ± 1.9"}, {"substance": "SHRSFFCSSLWMNYYCLISS", "amyloid nucleation score": "inactive"}, {"substance": "SHTTILTSWRSYKKMKASNA", "amyloid nucleation score": "0.496 ± 0.43"}, {"substance": "SHYTHVFLM", "amyloid nucleation score": "-0.468 ± 0.93"}, {"substance": "SIANVSFW", "amyloid nucleation score": "1.59 ± 0.18"}, {"substance": "SIAYPRNIELRWDEIGGDML", "amyloid nucleation score": "0.178 ± 0.54"}, {"substance": "SIGFLYCPLMSCASNFKWSK", "amyloid nucleation score": "4.55 ± 0.068"}, {"substance": "SILEQILC", "amyloid nucleation score": "-0.324 ± 0.22"}, {"substance": "SILIRLIISTINCCVNNVAF", "amyloid nucleation score": "5.43 ± 0.083"}, {"substance": "SINHNGPDQLKGVPFSCSCV", "amyloid nucleation score": "inactive"}, {"substance": "SINSRKSFMFIF", "amyloid nucleation score": "2.39 ± 0.16"}, {"substance": "SINVL", "amyloid nucleation score": "-1.03 ± 0.55"}, {"substance": "SINVPPHSGHELH", "amyloid nucleation score": "1.12 ± 0.76"}, {"substance": "SIPYSRRVF", "amyloid nucleation score": "0.103 ± 0.41"}, {"substance": "SIRSFMIVL", "amyloid nucleation score": "3.49 ± 0.13"}, {"substance": "SISWVWAAPIRAI", "amyloid nucleation score": "-1.59 ± 2.4"}, {"substance": "SIWKRLYFQVNGL", "amyloid nucleation score": "0.925 ± 0.92"}, {"substance": "SKCIWDFGYVSPWAISS", "amyloid nucleation score": "inactive"}, {"substance": "SKDGCSCFDIDVAMEGLLMR", "amyloid nucleation score": "-0.053 ± 1.1"}, {"substance": "SKFFQLFSVTILYAMDSGPC", "amyloid nucleation score": "-0.462 ± 0.7"}, {"substance": "SKKIVGIFYKVCSRRLFMVC", "amyloid nucleation score": "0.456 ± 0.6"}, {"substance": "SKLLNVDLTPCRSRTTLFVC", "amyloid nucleation score": "1.29 ± 0.47"}, {"substance": "SKNAWRVKNKSEFAV", "amyloid nucleation score": "0.488 ± 0.69"}, {"substance": "SKQFQASFHRVYSSVFSGWH", "amyloid nucleation score": "0.669 ± 0.38"}, {"substance": "SKSDQSWYFL", "amyloid nucleation score": "-0.227 ± 0.68"}, {"substance": "SKSYFSIV", "amyloid nucleation score": "-0.361 ± 0.39"}, {"substance": "SKWYSDQT", "amyloid nucleation score": "inactive"}, {"substance": "SKYGAYGRMVSSNLDT", "amyloid nucleation score": "-0.204 ± 0.84"}, {"substance": "SKYVYSF", "amyloid nucleation score": "1.2 ± 0.13"}, {"substance": "SLCRGATGGDGWWGVCSSA", "amyloid nucleation score": "0.614 ± 0.91"}]}]}
